{
  "source": "the DeepSol protein solubility set",
  "data": [
    {"assay": "soluble on expression in E. coli; label from the status in PepcDB or PDB records", "values": [
      {"sequence": "MNYKVTAEAIPDYQSKNAPISSYWMPDKFLEWSAENDKDLVYNQSRVPLTKRISPDKLSPSNQNQNKKTKIVALSMMNSQTSGNPSRGTTKFESYTFDYWQYIDTLVYWGGSSGEGIIVTPSADVIDEAHSNGVPVLGTIFLPPKEYGGKVDWVKTMLKKDEQGQYPFASQMVKVAKTYGFEGWFINEETQGLNADDAANMKALIQQVKKEDSSLQIMWYDAMTKDGKVDWQNQLNDQNATFVQDKAADAMFLNFWWTQNNLADQKLLEKSNLYAKNHNIDPYNIYAGIDVQAKDVQTPVKWNLLEKGNQATQTSIGLYAASATYTNASNWDDFQNRESAFWVNQKADPRQVDHSVNESWTGLSKYVLEKSAISGNEFNTNFNLGNGYNYFKAGQKISEMDWNDRSLAGILPSYRWIIDNEGKNKISPSFDFANAYNGGNSLKFMAEHLDAGKLEHHHHHH", "soluble on expression in E. coli": "not soluble"},
      {"sequence": "MNYMPGTASLIEDIDKKHLVLLRDGRTLIGILRSIDQFANLVLHQTVERIHVGKKFGDIPRGIFVVRGENVVLLGEVDLDKECDQILQRVSIEEILEEQRTEQQAKQESERLKLQAVKERGLSIPKADTLDDF", "soluble on expression in E. coli": "soluble"},
      {"sequence": "MNYSACTSILVGPQATMDGSVLIGRNEDAKAAWPKHFIVHPATTVATPPQFVSTDNGFTMPLPTQAAKYTATPEWTDKYGLFEEDGINEYGVAMSATESTYSNERVLGADPLVKDGLGEEAMVTVVLPYVKTAREGVARLGQLIEQYGTNESNGILFADQQEAWYLETGAGHYWVAQRIPANAYAVVANQMAIQAVDFADADNFMFAKNLQAFVTDNHLNPHPDRFIWREIFGTQDQSDLYYNTPRVWYGQKRFTPQVSQEPQSFDLPFIQYADRLLSVGDAQQYLSSHFEETPYDPVGSGTAEQKHRFRPVSLAKTQESHVLQLRPNMTPGLAGIQWLAMGVGAQSVYVPFYAGIDSTPEAYHLGTETYDSKSAYWTYKLVSVLLDAHYHTALPTVSETQKALRIAFKQAVQETDRGAQTLSGTELSRYLTQRSNEVAELGLKRYRELAATLITRATDLGPLNYHQDLNLLEHHHHHH", "soluble on expression in E. coli": "not soluble"},
      {"sequence": "MPAHSLSLYQYYRPPLDWQAQLAFYRLRAVAGMEWFSNTDNDCLEKIAQDKQALEYGRTLQIDDIRAVVHIIHEAHLHRFKLTLTFTPDSPIAGLQKLITQVRRILDLDADMQQIEHNLQRLTDLKLIPKSGLRIPGAGSLEHHHHHH", "soluble on expression in E. coli": "not soluble"},
      {"sequence": "MPATNDGPDDGAHLSKSEQTRALILETAMRLFQERGYDRTTMRAIAQEAGVSVGNAYYYFAGKEHLIQGFYDRIAAEHRAAVREVLARETDLEARLAGVLKVWLDIATPYHEFAVQFFKNAADPDSPLSPFSPESEHARVEAIGIHRAVLAGAKTKVPEELRDILPELMWLSQMGLVLYWIFDRTEGRERSYRLAERGARLTARGVVLARFRVLRPLVREVHELFTDFLPGMTKVMPDPAKKPTRDAGPQA", "soluble on expression in E. coli": "soluble"},
      {"sequence": "MPDQPLNQDGFPTASKGVEPDNLPDRVLVDGLKPKHQQLREILEEICTTQLQPGDMLPGERILEEKYGVSRITVRRAIGDLVASGRLKRARGKGTFVAHSPLISRLHLASFSAEMAAQKLSATSRILSSSRGPAPDDIADFFGTDRAAQHITLRRLRLGNGRPYAIDNGWYNSEFAPDLLENDVYNSVYSILDRVYGVPVTQAEQTVTAVAADEDTARLLDVTPGAPLLRILRQSLSGDKPVEWCVSLYRTDRYSLKTLVTRSEDL", "soluble on expression in E. coli": "soluble"},
      {"sequence": "MPEEMDKPLISLHLVDSDSSLAKVPDEAPKVGILGSGDFARSLATRLVGSGFKVVVGSRNPKRTARLFPSAAQVTFQEEAVSSPEVIFVAVFREHYSSLCSLSDQLAGKILVDVSNPTEQEHLQHRESNAEYLASLFPTCTVVKAFNVISAWTLQAGPRDGNRQVPICGDQPEAKRAVSEMALAMGFMPVDMGSLASAWEVEAMPLRLLPAWKVP", "soluble on expression in E. coli": "soluble"},
      {"sequence": "MPEISPYVTKTEVQLMMAGLDYRKTNGSRDTAPKGQLPWIVDAAQAIADSTFIRVHIERKYDVDLDFGLTGRERAQAWAIERMIENQLGWVSTYFRFLEPANFERGPARAFDQAPGHLRDELRQGLREAVAANIRAVGVGRHLREEVAWLGGLSLRALDELLEDKAYLMRDAYPVGVDATAFAMLAAIMTPFFDSPLRRQAERYPRLVAYVGRMMERFYPAHPWGLRQAALEHHHHHH", "soluble on expression in E. coli": "not soluble"},
      {"sequence": "MPFCPEEFYCRITQNIESLNNIAKIQHAANTDYLTDLANRRAFFRSAESRIKEYINKKVPYCLAMIDVDFFKKVNDTYGHDSGDQVLKVIALYMRKHFGAGLTARLGGEEFAVLLHGLDADYLHNKLDDFRREIAVSSIPAGDTSISITLSLGVVFDSEDELSKQMNEADNALYAAKENGRNQIVVFGAELDDLEHHHHHH", "soluble on expression in E. coli": "not soluble"},
      {"sequence": "MPFRSNNPITRDELLSRFFPQFHPVTTFNSGLSGGSFLIEHQGQRFVVRQPHDPDAPQSAFLRQYRALSQLPASIAPKPHLYLRDWMVVDYLPGAVKTYLPDTNELAGLLYYLHQQPRFGWRITLLPLLELYWQQSDPARRTVGWLRMLKRLRKAREPRPLRLSPLHMDVHAGNLVHSASGLKLIDWEYAGDGDIALELAAVWVENTEQHRQLVNDYATRAKIYPAQLWRQVRRWFPWLLMLKGGWFEYRWRQTGDQQFIRLADDTWRQLLIKQ", "soluble on expression in E. coli": "not soluble"},
      {"sequence": "MPGACGIYALATVSKPDPDMTQIITALAEISERYRALFVDLWGCVHNGVTAYPEAVAALQAYRAAGGIVVLVTNSPKPRAGVATQLSQFKVPQDAYDTIATSGDSARSAMFRGAVGQKVYFMGEWERDAGFFEPLKLLDSPVEITRVPLQEAEGIVCCGPFDPMADPAVNRPDFLYAKTKGMKLLCANPDIVVDRGEIREWCAGALARLYTEMGGESLYFGKPHPPIYDLARRRLLSLGADIADSEILAIGDGIQTDIAGGQGEGIDSLFISGGLAASETKTGHSPDPAALTAYLDRENRMPTYTIGQLR", "soluble on expression in E. coli": "not soluble"},
      {"sequence": "MPGITFKEDANERGRQIEHWPLLKNGSIFVIADDGTRYFQEDAKHRHGHVYTHGSWLIPMNNQHPYLIFDQTQYDAFKQEESQAGQLPYPKFMTKLVSAPTIAQLAAKLGVPANNLQQTVTDFNHYTEVGRDFEFGRDPQTMRQLDDGPYYAIAALEHHHHHH", "soluble on expression in E. coli": "soluble"},
      {"sequence": "MPHWLVIDLEATTAEGGWPLEEMEIIEIGATLVAAADARELDHFQRFVRPVRRPLLTHFCRDLTHISQANVDGAAHLNTVWEAFERWLAQHRPRLAGWASWGDYDRRQLEQEWRQHGLTSQLSEVPHVNLKQRFGEVRQLPRPVGLNAALQLAGMSFQGQQHRALEDARNTARLLPLVLPVEHLEHHHHHH", "soluble on expression in E. coli": "soluble"},
      {"sequence": "MPICTRLTAQIVKVAVNQPVAIRSSMWAKNNQNIHFMNLHVKKLEKLLLF", "soluble on expression in E. coli": "not soluble"},
      {"sequence": "MPIKVKYYGNVVFASDAVCGQAENYATLKAMKEVGNYTISIQTFENAENVYPEEFLAKPVADEHYLTTEDGSVGIKGHYLDIVKELIEKDKVDIIFAGGKLGSLAKLAELTRPYGIPTLEHHHHHH", "soluble on expression in E. coli": "not soluble"},
      {"sequence": "MPITPPLNIISPKLYPNEQWNESEALGAITWLWYQSPTHRQVPIVEMMTYILPVLKNGQFALFCKGTQPIGYISWAYFDEVAQAHYLESDRHLRDNSDWNCGDNIWLIQWFAPLGHSHQMRSAVRQLFPSTTVRALYHKGSDKGLRILTFKT", "soluble on expression in E. coli": "not soluble"},
      {"sequence": "MPITRTGLPHAVASTSQTQETSQASASQGVLDPGTVPPRRAETFDGLSALPNDLRREIAQRCGPRSLVRLGSVSRQMAEDTRDVRAFLTARPRYDPSLEFGDVHSAESMRVALDEVTHFPYPDDEDRSEQILRGYGRLAARIPSLPQAQRFEAFTAVLNHATRHSGNMAFRVVARLTDDLGCLPEDLRALAFHAILPSLIATRRQALQAAAGAAHVGHIGAVAEADAGGVQGDGEPGPQGAVAPAQGGAAGGIGGALPFNLLASAIRHLPEEAVNLAITEAAALQTGPRLLAEVTLRLHLVGLEPIHRFQQAYAQLAEHLARSGDGAEALTHLVALLNRLPNPGVRQAAFRELTRAVHALDSTESGAAVLRRLAGALPHQPAAVRYLCSLDVLAAAASLFPSEQIPVIAAVRAQAAAIPNQAAELIARCDDAIATASMMLATVSRRYMDM", "soluble on expression in E. coli": "not soluble"},
      {"sequence": "MPKETFFNLPKDKRNLIISAAMDEFSKAGYNTASINQICKKSNIPKGSFYQYFTDKLDLYVYIMTLTIEEKIKFFSSAIAEFHTLTFLEQFRLLFLKGLEFAKKHPQYAALADQFSKEDNESVKSAVIKEGDKQAESLFMQMIHNAKTKGEIDSKVDSLALCLLLQSLNSAVNKYMIGKFGGISYEYNQEDINNFVDSLLDIIFSGIQNKAD", "soluble on expression in E. coli": "not soluble"},
      {"sequence": "MPKHCSHLIIIPDGKMAAIPFEALIEKRPKHDTSSYAQMGFMIKKYATSYTYTASLYENTHEAAKVKKVLLFAPVDFSASSDLNALPGTLAEVDTLTSLCTNTAQADVYTYTAASKAVLVSDSLSGYSIIHLATHGLVDEEQPELSCIYTSGTSEENDRIYAGDMYNMHLNAALVSLSACQTGLGKIEKGEGMIGLSRALFYAGADNIMVSLWKVSDLSTQVYMQYFYSIYLSENFTTFAEAARISKIKLLNSETFNSPYYWAAFILIGKLEHHHHHH", "soluble on expression in E. coli": "not soluble"},
      {"sequence": "MPKIILVSHSKEIASGTKSLLKQMAGDVDIIPIGGLPDGSIGTSFDIIQEVLTKLEDDALCFYDIGSSEMNVDMAIEMYDGNHRVLKVDAPIVEGSFIAAVKLSIGGSIDDALAEIKQSFLEHHHHHH", "soluble on expression in E. coli": "soluble"},
      {"sequence": "MPKKVLIFCDPGIDDTMALLLAFFIDEIEIVGIVADYGNVPKKMAVENAHFFNNETKNRNIKIFGGSERPLTGAPPAFFTDVHGKQGLGPIIPKVNVTNGEMENFFEVIPLIEQYKDELIIVSLGRLTSLAILFIMCKQLMKQIKSYYVMGGAFLHPGNVTPISEANFYGDPTAANIVLQSTANMYIYPLNVTQYSIITPEMAEYIEAKGKAPLVKTLFDHYYYGYYKDALPHLKGSPFHDTIPILALLDNSMFTYHKSPIVVMTESYAQGASIGEFRSLGESKPFIDWPSHQIAIDFDYNRFFKHFMSLMTGEQF", "soluble on expression in E. coli": "not soluble"},
      {"sequence": "MPKSKSQKNKLRPRDSKGRFTPLAKAKRTVVSRSRSRSRSASRGARQSRSVGRPMSRRNSVRSISTHTAKSPSLVLVISGSPSPRRRRPSTRRSSSRRSVVRSVSRGSKGRRSSSRGSVYGRTGRSRSSKRSRSRSRPRTRSGSRSSSRSRSGSRRSSRRRSRHRSSSKARGRRASTAKKTPAKRRSRSRSQQKVKRSMSRKG", "soluble on expression in E. coli": "soluble"}
    ]}
  ]
}
